# Reference: US20110123544A1 (published 2011)
# T1: recombinant human interleukin 12 (p40/p35 heterodimer) (human, UniProt P29460 23-328; P29459 23-219)
# T1 chain 1: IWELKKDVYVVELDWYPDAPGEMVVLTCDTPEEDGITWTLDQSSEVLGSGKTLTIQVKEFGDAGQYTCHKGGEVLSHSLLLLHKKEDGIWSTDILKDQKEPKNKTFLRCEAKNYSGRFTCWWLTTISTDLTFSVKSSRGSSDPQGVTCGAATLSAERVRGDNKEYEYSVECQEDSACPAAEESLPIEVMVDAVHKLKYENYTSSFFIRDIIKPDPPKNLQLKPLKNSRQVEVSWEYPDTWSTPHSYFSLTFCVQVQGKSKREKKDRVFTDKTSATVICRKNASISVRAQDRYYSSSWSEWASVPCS
# T1 chain 2: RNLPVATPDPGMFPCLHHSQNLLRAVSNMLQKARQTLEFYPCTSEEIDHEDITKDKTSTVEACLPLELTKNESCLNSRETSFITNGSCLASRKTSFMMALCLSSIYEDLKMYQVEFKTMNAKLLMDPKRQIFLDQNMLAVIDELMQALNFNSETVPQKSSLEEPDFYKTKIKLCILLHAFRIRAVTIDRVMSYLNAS
# Molecular target: T1, recombinant human interleukin 12 …
# Assay: BIAcore
row,koff,Binder
1,2.5e-05 s⁻¹,FIRYDRSNKYYADSVKG [Y61 H54 R]
2,0.000316 s⁻¹,FIRYDQSNKYYADSVKG [Y61 H54 Q]
3,0.000611 s⁻¹,FIRYYGSNKYYADSVKG [Y61 H53 Y]
4,0.000792 s⁻¹,FIRYQGSNKYYADSVKG [Y61 H53 Q]
5,0.000407 s⁻¹,FIRYDKSNKYYADSVKG [Y61 H54 K]
6,0.000447 s⁻¹,FIRYDNSNKYYADSVKG [Y61 H54 N]
7,0.000644 s⁻¹,FIRYDTSNKYYADSVKG [Y61 H54 T]
8,0.000368 s⁻¹,FIRYSGSNKYYADSVKG [Y61 H53 S]
9,0.00158 s⁻¹,FIRYKGSNKYYADSVKG [Y61 H53 K]
10,0.000727 s⁻¹,FIRYNGSNKYYADSVKG [Y61 H53 N]
11,0.000646 s⁻¹,FIRYDYSNKYYADSVKG [Y61 H54 Y]
12,0.000351 s⁻¹,FIRYDESNKYYADSVKG [Y61 H54 E]
13,0.0011 s⁻¹,FIRYLGSNKYYADSVKG [Y61 H53 L]
14,0.0005 s⁻¹,FIRYTGSNKYYADSVKG [Y61 H53 T]
15,0.000351 s⁻¹,FIWYDGSNKYYADSVKG [Y61 H52 W]

# Continued, binder first:
row,Binder,koff
1,YIRYDGSNKYYADSVKG [Y61 H50 Y],0.00023 s⁻¹
2,FIAYDGSNKYYADSVKG [Y61 H52 A],0.000171 s⁻¹
3,LIRYDGSNKYYADSVKG [Y61 H50 L],0.00044 s⁻¹
4,NIRYDGSNKYYADSVKG [Y61 H50 N],0.000344 s⁻¹
5,TIRYDGSNKYYADSVKG [Y61 H50 T],0.000205 s⁻¹
6,CIRYDGSNKYYADSVKG [Y61 H50 C],0.000285 s⁻¹
7,FILYDGSNKYYADSVKG [Y61 H52 L],0.000347 s⁻¹
8,EIRYDGSNKYYADSVKG [Y61 H50 E],0.000347 s⁻¹
9,FIQYDGSNKYYADSVKG [Y61 H52 Q],0.000285 s⁻¹
10,FIEYDGSNKYYADSVKG [Y61 H52 E],0.000318 s⁻¹
11,FISYDGSNKYYADSVKG [Y61 H52 S],0.000292 s⁻¹
12,FITYDGSNKYYADSVKG [Y61 H52 T],0.000374 s⁻¹
13,QIRYDGSNKYYADSVKG [Y61 H50 Q],0.00042 s⁻¹
14,KIRYDGSNKYYADSVKG [Y61 H50 K],0.000612 s⁻¹
